Earlier results, collected in article PMC13507575.

Target: IL-1β (Homo sapiens) (UniProt P01584)

For canakinumab, the Kd is listed as 4.1 nM.
